# Values quoted from earlier work in article PMC3061256.
# Target: HPr (Escherichia coli) (UniProt P0AA04)
substance,measurement,value
EIN (enzyme I N-terminal domain) N-terminal domain (from UniProt P08839),Kd,10 µM
